In article doi:10.1101/2022.07.11.499577 (bioRxiv, 2022):

B1: Eaf1 (natural protein)
chain: MSSRPSSAVPNSASLSEDQSSDRSKFPKADDLIDERDRKLTELYCVSRLNQLLELTDENKLRKEIDAFLKKNDIRRGIRFDEASLPKLLHTAATPITKKKLKDVNLINVPNQRLSDSKMSRELPENSENVSVKSESHFVPSHDNSIRENMMDSLRPAEKTGGMWNKRPLESTMGGEEERHEKRQKMQSQSLESSNNSEMASLPISPRPPVPNALAHYTYYENIEYPPADPTEVQPAVKFKDPLIKNIMAKEIDTSDHYNENNVDALETVFLLMNDYIPSKIPQALPLAELKYMSQTLPLINLIPRAHKALTTNIINNALNEARITVVGSRIEELRRLGLWSLRQPKRFIDPWKQHNTHQNILLEEAKWMQADFKEGHKYKVAICTAMAQAIKDYWTYGEICCVKRKTLLPGKENKLSDDGRISEKSGRPSDTSRNDSDISIAGKDDIGIIANVDDITEKESAAANDNDENGKNEAGAKSDFDFADGLLSQEGAHDQIISSIDTKLLLKKPSSSSEVVLIQHEVAASSALIETEESKKELAPPFKLSIFVDELNTFEKTLIQDLPLYNGINEERPKKDDSLPFIPISKSVVSLDDNGFYKLLERQLIDEEPSISQLSKRRGMFYGNRRNHYLRPPAVPSLRYLQNRTPTIWLSEDDQELVKNINTYGYNWELISAHMTHRLTYSYLSNIERRTPWQCFERFVQLNERFNFSDLKGPRAHSAQQWLIEAHKFQQRQNRRISPLGVNTESIQRGHRRLRWASMFEAIRKCMKKRENTPRPNPTQPRKPLDCKNMKVPTPAEMSLLKAQRDEALRRDIQLRRTVKNRLQQRQQQSQQAHSSRAQSPIPSNGKSSSNLARNGQASAPRPNQKQYTEQDIIESYSRKLLEQKPDIGPEMALKAAKNYYRTLREQQQQLKQHQIQQQRQQLQEESSHVQQLQQLQPGSQAPPPKSSPSQSSLSNISNINSAPRIKSPTPQEILQRFQKQ

Legend:
Eaf1 [1] = target: B1; experiment: affinity purification with mass spectrometry
Tra1 = Tra1 (S. cerevisiae, UniProt P38811 1-3744); experiment: cryo-EM structure
Sequence of Tra1 (P38811 whole entry): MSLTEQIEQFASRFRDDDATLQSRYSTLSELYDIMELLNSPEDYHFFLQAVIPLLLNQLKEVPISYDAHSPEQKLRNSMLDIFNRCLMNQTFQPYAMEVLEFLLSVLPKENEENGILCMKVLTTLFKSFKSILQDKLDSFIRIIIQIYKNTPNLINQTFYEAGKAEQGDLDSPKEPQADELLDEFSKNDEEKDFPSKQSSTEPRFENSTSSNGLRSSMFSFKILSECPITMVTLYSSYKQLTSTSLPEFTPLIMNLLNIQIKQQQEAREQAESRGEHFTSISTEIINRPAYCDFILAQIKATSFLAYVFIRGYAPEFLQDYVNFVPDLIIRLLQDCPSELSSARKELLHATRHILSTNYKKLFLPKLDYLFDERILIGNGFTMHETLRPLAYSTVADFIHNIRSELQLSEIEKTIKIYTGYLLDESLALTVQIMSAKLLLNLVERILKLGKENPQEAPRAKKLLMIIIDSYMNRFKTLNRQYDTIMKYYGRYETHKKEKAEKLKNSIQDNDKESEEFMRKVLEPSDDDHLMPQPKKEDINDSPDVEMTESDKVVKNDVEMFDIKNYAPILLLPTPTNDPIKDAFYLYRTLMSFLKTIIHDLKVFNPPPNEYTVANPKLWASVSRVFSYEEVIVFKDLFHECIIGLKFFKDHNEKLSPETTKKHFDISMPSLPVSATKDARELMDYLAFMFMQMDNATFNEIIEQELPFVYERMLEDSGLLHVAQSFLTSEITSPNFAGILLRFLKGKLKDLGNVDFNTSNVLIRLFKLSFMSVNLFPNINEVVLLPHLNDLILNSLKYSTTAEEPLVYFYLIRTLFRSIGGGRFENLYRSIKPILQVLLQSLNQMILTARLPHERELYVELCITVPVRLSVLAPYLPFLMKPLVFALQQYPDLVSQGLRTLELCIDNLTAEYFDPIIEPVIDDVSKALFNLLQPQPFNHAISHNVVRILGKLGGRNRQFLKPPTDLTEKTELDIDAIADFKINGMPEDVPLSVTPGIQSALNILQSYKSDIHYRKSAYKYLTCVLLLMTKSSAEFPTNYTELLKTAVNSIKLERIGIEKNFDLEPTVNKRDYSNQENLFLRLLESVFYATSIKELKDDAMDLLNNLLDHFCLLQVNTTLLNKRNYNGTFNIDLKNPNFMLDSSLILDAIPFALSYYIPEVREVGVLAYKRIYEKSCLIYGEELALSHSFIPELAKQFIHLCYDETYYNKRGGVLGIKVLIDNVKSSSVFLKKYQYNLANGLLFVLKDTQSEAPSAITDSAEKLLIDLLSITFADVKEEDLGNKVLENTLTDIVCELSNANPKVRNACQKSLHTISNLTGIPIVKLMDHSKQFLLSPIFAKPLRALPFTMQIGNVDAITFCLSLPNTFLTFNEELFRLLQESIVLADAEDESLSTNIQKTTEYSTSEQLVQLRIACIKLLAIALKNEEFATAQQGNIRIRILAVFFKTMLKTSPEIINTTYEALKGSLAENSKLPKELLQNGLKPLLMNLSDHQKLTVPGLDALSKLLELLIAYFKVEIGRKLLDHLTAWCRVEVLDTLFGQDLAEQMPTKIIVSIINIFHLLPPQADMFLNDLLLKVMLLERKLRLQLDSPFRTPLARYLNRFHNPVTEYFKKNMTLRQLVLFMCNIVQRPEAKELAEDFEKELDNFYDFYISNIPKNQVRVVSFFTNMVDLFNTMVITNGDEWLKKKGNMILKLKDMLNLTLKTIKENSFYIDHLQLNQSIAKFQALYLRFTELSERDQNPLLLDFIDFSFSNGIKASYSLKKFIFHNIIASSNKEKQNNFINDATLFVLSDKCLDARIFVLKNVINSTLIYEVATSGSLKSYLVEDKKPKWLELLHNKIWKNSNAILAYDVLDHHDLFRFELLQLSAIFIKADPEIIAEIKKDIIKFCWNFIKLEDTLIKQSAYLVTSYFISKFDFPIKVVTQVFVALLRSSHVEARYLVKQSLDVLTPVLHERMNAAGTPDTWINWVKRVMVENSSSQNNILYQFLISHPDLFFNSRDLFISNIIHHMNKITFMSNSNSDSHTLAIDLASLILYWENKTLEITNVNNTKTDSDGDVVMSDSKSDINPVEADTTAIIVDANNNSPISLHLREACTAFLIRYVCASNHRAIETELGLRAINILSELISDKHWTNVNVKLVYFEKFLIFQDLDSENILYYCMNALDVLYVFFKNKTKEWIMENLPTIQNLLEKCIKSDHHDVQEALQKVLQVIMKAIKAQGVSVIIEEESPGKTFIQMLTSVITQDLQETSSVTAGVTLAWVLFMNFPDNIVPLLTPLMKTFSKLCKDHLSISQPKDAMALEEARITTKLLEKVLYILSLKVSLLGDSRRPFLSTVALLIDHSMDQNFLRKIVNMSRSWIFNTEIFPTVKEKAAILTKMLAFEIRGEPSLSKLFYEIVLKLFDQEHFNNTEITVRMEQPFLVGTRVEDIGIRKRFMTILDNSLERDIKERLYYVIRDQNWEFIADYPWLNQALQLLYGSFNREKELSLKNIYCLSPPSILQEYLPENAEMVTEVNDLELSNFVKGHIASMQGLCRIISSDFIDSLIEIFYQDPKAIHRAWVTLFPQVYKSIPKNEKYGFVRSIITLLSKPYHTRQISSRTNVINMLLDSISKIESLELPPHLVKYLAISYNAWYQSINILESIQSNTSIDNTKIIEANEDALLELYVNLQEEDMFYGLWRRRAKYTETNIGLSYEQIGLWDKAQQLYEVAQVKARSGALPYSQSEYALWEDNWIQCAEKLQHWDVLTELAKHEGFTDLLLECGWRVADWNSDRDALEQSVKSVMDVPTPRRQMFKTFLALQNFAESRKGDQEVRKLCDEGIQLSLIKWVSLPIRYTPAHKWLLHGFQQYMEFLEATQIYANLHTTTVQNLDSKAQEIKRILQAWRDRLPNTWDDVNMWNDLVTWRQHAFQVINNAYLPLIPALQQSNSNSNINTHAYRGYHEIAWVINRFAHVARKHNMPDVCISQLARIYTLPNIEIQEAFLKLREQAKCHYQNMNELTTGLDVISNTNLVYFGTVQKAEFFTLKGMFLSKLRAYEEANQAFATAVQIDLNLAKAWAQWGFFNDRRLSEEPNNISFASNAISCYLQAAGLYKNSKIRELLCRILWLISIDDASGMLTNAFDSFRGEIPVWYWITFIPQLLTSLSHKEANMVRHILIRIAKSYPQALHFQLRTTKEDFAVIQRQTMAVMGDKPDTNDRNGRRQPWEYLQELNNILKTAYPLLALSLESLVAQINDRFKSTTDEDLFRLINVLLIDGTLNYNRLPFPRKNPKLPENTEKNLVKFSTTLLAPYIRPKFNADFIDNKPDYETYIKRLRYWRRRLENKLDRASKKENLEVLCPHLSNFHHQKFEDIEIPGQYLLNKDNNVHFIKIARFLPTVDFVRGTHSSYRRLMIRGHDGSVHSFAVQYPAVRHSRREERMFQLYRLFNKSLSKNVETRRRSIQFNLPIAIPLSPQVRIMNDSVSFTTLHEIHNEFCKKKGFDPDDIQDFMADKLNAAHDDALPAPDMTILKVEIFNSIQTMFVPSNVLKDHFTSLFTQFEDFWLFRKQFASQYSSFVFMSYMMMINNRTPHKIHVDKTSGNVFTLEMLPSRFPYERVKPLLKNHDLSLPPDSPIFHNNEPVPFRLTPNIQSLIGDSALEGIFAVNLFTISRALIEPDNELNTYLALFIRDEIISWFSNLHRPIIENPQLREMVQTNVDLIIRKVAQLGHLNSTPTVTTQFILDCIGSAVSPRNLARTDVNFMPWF

Eaf1 [2] = target: B1; experiment: cryo-EM structure

Row | Binder | binding result (Eaf1 [1]) | binding result (Tra1) | binding result (Eaf1 [2])
1 | Epl1 with a TAP tag fused to the C-terminus (natural protein) MPTPSNAIEINDGSHKSGRSTRRSGSRSAHDDGLDSFSKGDSGAGASAGSSNSRFRHRKISVKQHLKIYLPNDLKHLDKDELQQREVVEIETGVEKNEEKEVHLHRILQMGSGHTKHKDYIPTPDASMTWNEYDKFYTGSFQETTSYIKFSATVEDCCGTNYNMDERDETFLNEQVNKGSSDILTEDEFEILCSSFEHAIHERQPFLSMDPESILSFEELKPTLIKSDMADFNLRNQLNHEINSHKTHFITQFDPVSQMNTRPLIQLIEKFGSKIYDYWRERKIEVNGYEIFPQLKFERPGEKEEIDPYVCFRRREVRHPRKTRRIDILNSQRLRALHQELKNAKDLALLVAKRENVSLNWINDELKIFDQRVKIKNLKRSLNISGEDDDLINHKRKRPTIVTVEQREAELRKAELKRAAAAAAAAKAKNNKRNNQLEDKSSRLTKQQQQQLLQQQQQQQQNALKTENGKQLANASSSSTSQPITSHVYVKLPSSKIPDIVLEDVDALLNSKEKNARKFVQEKMEKRKIEDADVFFNLTDDPFNPVFDMSLPKNFSTSNVPFASIASSKFQIDRSFYSSHLPEYLKGISDDIRIYDSNGRSRNKDNYNLDTKRIKKTELYDPFQENLEIHSREYPIKFRKRVGRSNIKYVDRMPNFTTSSTKSACSLMDFVDFDSIEKEQYSREGSNDTDSINVYDSKYDEFVRLYDKWKYDSPQNEYGIKFSDEPARLNQISNDTQVIRFGTMLGTKSYEQLREATIKYRRDYITRLKQKHIQHLQQQQQQQQQQQQQAQQQKQKSQNNNSNSSNSLKKLNDSLINSEAKQNSSITQKNSS | binds | – | –
2 | B1 | – | binds | –
3 | Eaf2/Swc4 (natural protein) MSSSDIFDVLNIKQKSRSPTNGQVSVPSSSAANRPKPQVTGMQRELFNLLGENQPPVVIKSGNNFKEKMLSTSKPSPWSFVEFKANNSVTLRHWVKGSKELIGDTPKESPYSKFNQHLSIPSFTKEEYEAFMNENEGTQKSVESEKNHNENFTNEKKDESKNSWSFEEIEYLFNLCKKYDLRWFLIFDRYSYNNSRTLEDLKEKFYYTCRNYFKASDPSNPLLSSLNFSAEKEIERKKYLQRLLSRSAAEIAEEEALVVESKKFEMAAKRTLAERESLLRLLDSPHSDQTITQYLTSQGMSQLYNALLADKTRKRKHDLNIPENPWMKQQQQFAQHRQLQQLNVKKSEVKENLSPKKTKRQRQEMQTALKRKSESAYAEQLLKDFNSDERKALGVITHGEKLSPGVYLRSTKLSTFKPALQNKILAILQELSLPSRPVMPSFDVMERQEELLKKINTLIDLKKHVDKYEAGMSITK | – | binds | binds
